Results on one molecule are retold here after patent publication US20200199234A1 (published 2020).

The target of assay [1] is T1, huCD28-Fc, dimeric human CD28 extracellular domain fused to human IgG1 Fc (knob/hole, PG-LALA), monovalent … (human, UniProt P10747 19-152, biotin on C-terminal avi tag).
T1 construct: also called biotinylated huCD28-Fc antigen; not shown: human IgG1 Fc fragment with hole and PG-LALA mutations; human IgG1 Fc fragment with knob and PG-LALA mutations
Description: from SPR KD values.

In assay [2] the target is human CD28 expressed on cells (CHO-k1 stably overexpressing human CD28; T cells in functional assays) (human, UniProt P10747 19-220). The assay is described as follows: cell-based or functional assay.

B1: FAP (4B9) - CD28 (CD28(SA)_Variant 8) 1+1 (bispecific antibody, human IgG1, kappa, L234A L235A)
heavy 1: EIVLTQSPGTLSLSPGERATLSCRASQSVTSSYLAWYQQKPGQAPRLLINVGSRRATGIPDRFSGSGSGTDFTLTISRLEPEDFAVYYCQQGIMLPPTFGQGTKVEIKSSASTKGPSVFPLAPSSKSTSGGTAALGCLVKDYFPEPVTVSWNSGALTSGVHTFPAVLQSSGLYSLSSVVTVPSSSLGTQTYICNVNHKPSNTKVDKKVEPKSCDKTHTCPPCPAPEAAGGPSVFLFPPKPKDTLMISRTPEVTCVVVDVSHEDPEVKFNWYVDGVEVHNAKTKPREEQYNSTYRVVSVLTVLHQDWLNGKEYKCKVSNKALGAPIEKTISKAKGQPREPQVCTLPPSRDELTKNQVSLSCAVKGFYPSDIAVEWESNGQPENNYKTTPPVLDSDGSFFLVSKLTVDKSRWQQGNVFSCSVMHEALHNHYTQKSLSLSP
light 1: EVQLLESGGGLVQPGGSLRLSCAASGFTFSSYAMSWVRQAPGKGLEWVSAIIGSGASTYYADSVKGRFTISRDNSKNTLYLQMNSLRAEDTAVYYCAKGWFGGFNYWGQGTLVTVSSASVAAPSVFIFPPSDEQLKSGTASVVCLLNNFYPREAKVQWKVDNALQSGNSQESVTEQDSKDSTYSLSSTLTLSKADYEKHKVYACEVTHQGLSSPVTKSFNRGEC
heavy 2: not shown
light 2: not shown
notes: also called P1AE3131
Consider B1, for which the “fold reduction of affinity compared to the parental CD28 clone” value in assay [1] is around 20 fold. Further, in assay [2], the “EC50 killing (nM), TCB-mediated killing of MV3 target cells” value worked out at 2.33 nM.
